Measurements from paper PMC9389230, “Connective tissue growth factor-targeting DNA aptamer suppresses pannus formation as diagnostics and therapeutics for rheumatoid arthritis”.

Assays:
CTGF (CCN2) = CTGF (CCN2) (UniProt P29279 27-349); test: SPR; SPR: PBS running buffer, CTGF on CM5 chip, aptamer 9.375-600 nM, 10 ul/min (SA chip with biotinylated aptamer for cytokines and CTGF deletion mutants); dot blot: nitrocellulose, 10% BSA block, 1 uM biotinylated aptamer, room temperature; pH not stated; settings: protein: commercial; label: biotin or Cy5 depending on assay
Chain of CTGF (CCN2) (P29279 27-349): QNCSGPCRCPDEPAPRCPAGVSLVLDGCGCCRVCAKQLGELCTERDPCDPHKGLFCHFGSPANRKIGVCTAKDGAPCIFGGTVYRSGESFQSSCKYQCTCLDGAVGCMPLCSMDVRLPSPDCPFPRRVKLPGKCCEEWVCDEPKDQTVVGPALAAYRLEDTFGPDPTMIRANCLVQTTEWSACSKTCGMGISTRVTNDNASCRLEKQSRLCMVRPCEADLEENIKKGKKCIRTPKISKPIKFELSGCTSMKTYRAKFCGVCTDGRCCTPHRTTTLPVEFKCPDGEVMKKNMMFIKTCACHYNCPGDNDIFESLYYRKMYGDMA

murine CTGF (SPR) = murine CTGF (SPR) (mouse, UniProt P29268 26-348); test: as above; settings: protein: recombinant; label: biotin or Cy5 depending on assay
Chain of murine CTGF (SPR) (P29268 26-348): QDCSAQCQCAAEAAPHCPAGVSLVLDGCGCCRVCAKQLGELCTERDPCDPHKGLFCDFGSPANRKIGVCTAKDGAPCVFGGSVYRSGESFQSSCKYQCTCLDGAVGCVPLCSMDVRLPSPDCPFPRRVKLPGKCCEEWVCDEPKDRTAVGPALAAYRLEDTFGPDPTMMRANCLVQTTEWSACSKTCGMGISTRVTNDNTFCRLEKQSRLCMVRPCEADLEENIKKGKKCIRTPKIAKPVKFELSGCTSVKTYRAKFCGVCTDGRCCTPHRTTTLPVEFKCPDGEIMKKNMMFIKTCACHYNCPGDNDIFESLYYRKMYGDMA

AGGCCGGGAGGGTACCCATTGATGGTGTGATGACTGCCT (ssDNA, 3' PEG (high molecular mass)) [AptW2-1-39-PEG]
Kd (CTGF (CCN2)): 7.86 nM | binding result (murine CTGF (SPR)): binds
